Test results published in publication PMC7411789, “Application of a Glucose Dehydrogenase-Fused with Zinc Finger Protein to Label DNA Aptamers for the Electrochemical Detection of VEGF”.

Target: ZF-GDH (Zif268 fused to N-terminus of AfGDH) (mouse (Zif268); Aspergillus flavus (GDH), UniProt P08046 336-416)
Assay: method not stated; states fusion kept dsDNA binding, with ref 25; TBS: 10 mM Tris-HCl, 100 mM NaCl, pH 7.0; washes with 0.05% Tween-20, block 4% skim milk; 25 °C, 1 h

B1: Zif268 target dsDNA (dsDNA)
DNA 1: GCGTGGGCG
DNA 2: CGCCCACGC
- binding result: binds
